test: yeast display, Sf9 membrane polyspecificity reagent, FACS + sequencing; frameworks hold sequencing errors
Summary of the method: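 Genes from sorted yeast were amplified by colony PCR, read by MiSeq 2 × 250 sequencing and filtered on CDR length. These cells carried a synthetic nanobody library in Saccharomyces cerevisiae BJ5465 and were sorted by FACS into low and high (top ~1%) gates on anti-HA and streptavidin fluorescence. Polyreactivity is labelled according to the gate of origin.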

Sequence	polyreactivity (PSR sort gate)
QVQLLESGGGLVQAGGSLRLSCAASGSILYPYAMGWYRQAPGTERELVAVITKSGGGTYYADSVKGRFTISRDNAKNTVYLQMNSLKPEDTAVYYCNRVWLRGAPHMEYWGQGTQVTVSS	high polyreactivity
QVQLLESGGGLVQAGGSLRLSCAASGSIYVYNAMAWYRQAPGKERELVAAISRGGRTYADSVKGRFTISRDNAKNTVYLQMNSLKPEDTAVYYCAAQGYYRSWYSRQGHYDFWGQGTQVTVSS	high polyreactivity
QVQLLESGGGLVQAGGSLRLSCAASGSTCGRNAMGWYRQAPGKERELVAAITSTGSTYYADSVKGRFTISRDNAKNTFYLQMNSLNPEDTAVYYCAAEARPYLFPAYKYPYYSWGQGTQVTVSS	low polyreactivity
QVQLLESGGGLVQAGGSLRLSCAASGSTFDRYAMGWNRQAPGKEREFVAAITWGGGSTYYADSVKGRFTISRDNAKNTVYLKFNSLKPEDTAVYYCATRYGASFGYWVQGTQVTVSS	low polyreactivity
QVQLLESGGGLVQAGGSLRLSCAASGSTFGFYAMGCYRPAPGKERELVAAISKSGDITYYADSVKGRFTNSLDNAKNTVYLQMNSLKPEDTAVYYCADRYGYLDNSIYVYWGQGTQVTVSS	high polyreactivity
QVQLLESGGGLVQAGGSLRLSCAASGSTFINNAMGWYRQAPGKERELVAAISGNADRTYYADSVKGRFTISRDYAKNTVYLQMISLKPEDTAVYYCNALSLLSDGAASVDQVTFDYWGQGTQVTVSS	low polyreactivity
QVQLLESGGGLVQAGGSLRLSCAASGSTFLANAMGWYRQAPGKERDLVAAISSSGGSTYYADSVKWRFTISRDNAKNTVYVQMNSLKPEDTAVYYCAAATASRYRLWGGYYYWGQGTQVTVSS	low polyreactivity
QVQLLESGGGLVQAGGSLRLSCAASGSTFPRYVMGWYRQAPGKERELVAAISSSSGRTFYADSVKGRFTISRDNAKNTVYLQMNSLKPEDTSVYYCAARTSFNVHYWGQGTQVTVSS	high polyreactivity
QVQLLESGGGLVQAGGSLRLSCAASGSTFYSYAMGGYRQAPGKERELVAAISSSSGSTYYADSVKGRFTISRDNANNSVYLQMNSLKPEDTAVYYCNRGRRYSHKYDYWGQGTQVTVSS	high polyreactivity
QVQLLESGGGLVQAGGSLRLSCAASGYTFAYYAMGWYRQAPGKERELVATISWSDGSTYYADSVKGRFTISRDNAKNTVYLQMNSLKPEDTAVYYCAADTPGYYTYYGFGYWGQGTQVTVSS	low polyreactivity
QVQLLESGGGLVQAGGSLRLSCAASGYTFRYYTMGWYRQAPGKERELVAAISGSGGSTYYADSVKGRFTISRDTAKNTVYLQMNSLKPEDTAVYYCNRFYSTSRITQYEFDYWGQGTQVTVSS	high polyreactivity
QVQLLESGGGLVQAGGSLRLSCAASGYTLRKYAMGWYRQAPGKERELVAAIRTSGGSTYYADSVKGRFTISRDNAKNTVYLQMNSLKPEDTAVYYCAAEWIFSYTWEYDYWGQGTQVTVSS	low polyreactivity
QVQLLESGGGLVQAGGSLRLSCAASVSTFLYYTMGWYRQATGKQRELVAAISDDGSTSYADSVKGRFTISRDNAKITVYLQMNSLKPEDTAVYYCAARFYHNRYTFYDFYTLYPYYYWGQGTQVTVSS	low polyreactivity
QVQLLESGGGLVQAGGSLRLSCKARGSILGDRMSWYRQAPVKEHELVATIYDGGITYYADSMKGRFTISRDNAKNTVYLQMNRLRPEDTAVYYCGASFEGYRYHVYCGQGTQVTVSS	low polyreactivity
QVQLLESGGGLVQAGGSLRLSCMASGSILGDRMSWYRQAPGKEHELVATIYDGGITYYADSMKGRFTISRDNAKNTVYLQMNSLRPEDTAVYYCGASFEGYGYHVYCGQGTQVTVSS	low polyreactivity
QVQLLESGGGLVQAGGSLRLSFAASGYIFSVNAMGWYRQAPGQERELVATIRTDGTTNYADSVNGRFTISRDNAKNTVYLKMNSLKPEDTAVYYCATDSGWSTYDYWGQGTQVTVSS	high polyreactivity
QVQLLESGGGLVQAGGSLRLSFASSGSIFHPYAMGWYRQAPGKERELVAAITSGGSTYYADSVKGLFTISRDNAKNTDLLQMNSLNPEDNAVYYCAKDFDIYYSKYDYWGQGTQVTVSS	low polyreactivity
QVQLLESGGGLVQAGGSLRLSGAASGRIFRWYAMGWYRQAPGKEREFVAAITSSGGSTYYADSVMGRFTISRDNAKNTVYLQMNSLKPDDTAGYYCAALVYLGGSYSRGYDWGQGTQVTVSS	high polyreactivity
QVQLLESGGGLVQAGGSLRLTCAASGNIFISYAMAWYRQAPGKERELVAAISRSGGSTYYADSVKGRFTISRDNAKNTVYLQMNSLKPEDTAVYYCAAYIGPGRYGSWGQGTQVTVSS	high polyreactivity
QVQLLESGGGLVQAGGSLRLTCAASVIIFYPYAMVWYRQAPGKERELVAAISIGGGSTYYADSVKGRFTISRDNAKNTVYLQMNSLKPEDTAVYYCAAGTPYGILGYYYWGQGTQVTVSS	low polyreactivity
QVQLLESGGGLVQAGGSLRLTCMASGSILGDRMSWYRQARGKEHELVATIYDGGITYYADSMKGRFTISRDNAKNTVYLQLNSLRPEDTAVYYCGASFEGYRYHVYCGQGTQVTVSS	low polyreactivity

Sequence	polyreactivity (PSR sort gate)
QVQLLESGGGLVQAGGSRRLSCAASGSTFYGYAMGWYRQAPGKEREFVAAITTSGGSTYYADSVKGRFTISRDNAKNTVYLQMNSLKPEDTAVYYCAADAPSWYDRQYDYWGQGTQVTVSS	low polyreactivity
QVQLLESGGGLVQAGGTLRLSCAASGSIFFRNAMGWYRQAPGKERELVAAITWNGGSTYYADSVKGRFTISRDNAKNTVYLQMNSLKPDDTAVYYCNKYYYYRDSGYWGQGTQVTVSS	high polyreactivity
QVQLLESGGGLVQAGGTLRLSCAASGSTFRYNAMGWYRQAPGKERELVAAITSGGRTNYADSVKGRFTISRDNAKYTFYLQMNSLKPEDTGVYYCAARRYCRNWHNVYWGQGTQVTVSS	high polyreactivity
QVQLLESGGGLVQAGRSLRLSCSASGRTLVYNAMGWYRQAPGKERELVAGITNGGSTNYADSVKGRFTISRDTAKNTVYLQMNSLKPEDTAVYYCAADSRVYPYYFGDFGYWGQGTQVTVSS	low polyreactivity
QVQLLESGGGLVQAGVSLRLSCSASGFTFGRYAMGCYRQAHGKERELVAGITWSGGSTSYADSVKGRFTISRDNAKNTVYLQMNSLKPEDTAVYYCATRARYTRVHGRRYAYDYWGQGTQVTVSS	high polyreactivity
QVQLLESGGGLVQARGSLRLICAASGRIFTDNAMGWYIQAPGKERELVATISKRGGRTYYADSVKGRFTISRDNAKNTVYLQMNSLKPEDTAVYYCNARPYWIDGSGLFPYDYWGQGTQVTVSS	high polyreactivity
QVQLLESGGGLVQEGGSLRLSCAASGSIFEWYVMGWYRQAPGKERELVDTITSDCSSNYADSVKGRFTISRDNAKNTVYLQMNSLKPEDSAVYYCARDWRWDAWTRRGNDDGYWGQGTQVTVSS	low polyreactivity
QVQLLESGGGLVQSGGILRLSCAASGRNFGRYAMGLYRQAPGKERELLATITWRGGITYYADSVKGRFTISRDNAMNTVSLQMNSLKPEDSAVYYCAAGYGRIPYVYWGKGTQVTVSS	high polyreactivity
QVQLLESGGGLVQSGGSLRLSCAASGLTFGSNAMGWYRQATGKEREMVAAISYGGGSTSYADSVKGRFTISRDNAKNTVYLQMNSLKPEDTSVYYCAVVWLCAYSRTNYYYWGQGTQVTVSS	low polyreactivity
QVQLLESGGGLVQVGGSLRLSCAASGTIFIYGFLGWNRQAPGKERELVASINLGGITNYADSEKGRFTISRDNAINTGFLQMISLKPEDTAVYYCAAYVVTCQNYGYWGHGTQVTVSS	low polyreactivity
QVQLLESGGGVVQAGGSLRLSCAASGFTFLYNTMGGYRQAPGKVRELVAAISIRGGSTYYADSVKGRFTISRDNAKNTVYLQMNSLKPEDNAVYYCAARTPTPASRSRVYYWGHGTQVTVSS	high polyreactivity
QVQLLESGRGLDQAGGSLRLSCAASGGTYKTNPMGMYRQAPGKEMELVAAITGSGTSTYYADSVKGRFTISRDYAKNTVYLQMNSLNPEDTAVYYCAADKLYHPGIGDDYWGQGTQETVSS	low polyreactivity
QVQLLESVGGLVQAGGRLRLTCDATGSIFRYYAMGWYRQEPGKERELVATISSGGRTYYADSVKGRFTISRDNAKNTVYLQMNSLKPEDTAVYYCAKVGWSRRYYYWGQGTQVTVSS	high polyreactivity
QVQLLESWGGLVQAGGSLRLSCAASGFIFRGYAMGWYRQAPGKDRELVAAISTGGGRTYYADSVKGRFTISRDNAKNTVYLQMNSLKPDDTAVYYCIRRSYTQVLMDYWGQGTQVTVSS	high polyreactivity
QVQLLETGGGLVQAGGSLRLSCAPSGSTFYYYAMGWYRQAPGKEWELVAAISWSGVSTYYADSVKGRFTISRDNAKTTVYLQMNSLKPEDNAVYYCNADSYTLYGRYDYWGQGTQVTVSS	low polyreactivity
QVQLLETGRGLVQAGGSLRLSCAPSGITFRYYAMGWYRQAPGQERELVAAITRSGGSTYYADSVKGRFTLSRYNAKNTVYLQMNSLKPEDTAVYYCAAQPVSRHTGTFYRSNGYDYWGQVTQVTVSS	high polyreactivity
QVQLLQSGGGLVQAGGSLRLSCAASGFIFLGYAMGWYRQAPGNERELVAAISENSGTTSYADSVKGRFTISRDNAKNTVYLQMNSLKPEDTAVYYCAADSIGNYLLYDYWGQGTQVTVSS	low polyreactivity
QVQLPESGGGLLQAGGGLRLSCAASGSITSTGYMGWYRPAPGKEREPVAAIAAGTTTYYADSVKARFTISRDNAKNTVYLQMNCLRPEDTAVYYCAVFTDNRLAFLYWGQGTQVTVSS	low polyreactivity
QVQLQERAAWCRRAGSLRLSFAASGNISDYYFMGWYRQAPGKEREIFAAIAPGSNTFFADSVKGRFTISRDNATNTVYLQMNSLNPEDTAVYYCARQGTIYSYDIVYPRLDYWGQGTQVTVSS	low polyreactivity
QVQLQERGGGLVQAGGSLRQSCAASGTISDRAGMGWYRQAPAKNAIVATIDRGTNTNYADSVKGRFTISRDNAKNTVYLQMNSLKPEDTAVYNCAAVGRYNIYLDYWGQGTQVTVSS	low polyreactivity

— the nanobody polyreactivity screen of Harvey et al. (2022)
